In the test the target is full length native GPC (strain Josiah) expressed on HEK293 cells (Lassa virus, strain Josiah, UniProt P08669). Nature of the test: flow cytometry on cells. The conditions noted are these: one partner purified.
full length native GPC (strain Josiah) expressed on HEK293 cells, sequence (P08669 whole entry, looked up): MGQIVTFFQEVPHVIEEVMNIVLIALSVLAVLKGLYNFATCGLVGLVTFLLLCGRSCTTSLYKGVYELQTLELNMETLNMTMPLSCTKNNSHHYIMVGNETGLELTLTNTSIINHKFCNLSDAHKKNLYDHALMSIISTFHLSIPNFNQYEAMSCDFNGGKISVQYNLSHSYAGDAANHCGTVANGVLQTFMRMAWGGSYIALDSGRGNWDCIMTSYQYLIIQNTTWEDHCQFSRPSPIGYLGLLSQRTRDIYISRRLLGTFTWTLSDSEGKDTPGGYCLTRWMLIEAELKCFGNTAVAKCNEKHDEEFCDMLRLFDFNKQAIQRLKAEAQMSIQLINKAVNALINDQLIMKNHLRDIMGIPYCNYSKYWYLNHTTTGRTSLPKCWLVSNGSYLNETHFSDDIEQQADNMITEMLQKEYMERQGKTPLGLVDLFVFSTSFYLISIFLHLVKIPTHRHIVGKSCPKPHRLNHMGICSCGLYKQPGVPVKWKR

B1: 25.10C IgG (antibody, V domains shown)
VH: QVQLQESGGGLVKPGGSLRLSCTASGFNFNKYNMNWVRQAPGKGLEWVSSISALSTYIYYADSLKGRFTVSRDNAKNSLFLQMNSLRDDDTAVYYCAREIRRASTWSADLWGRGTLVTVSS
VL: DIQMTQSPSSLSASVGDRVIITCRASQSISSSLNWYQQKPGKAPKLLIYAAVNLETGVPSRFSGSGFGTDFTLAISNVQPEDFATYYCQQSDTRTFGRGTKLDVK
For B1, the binding result was “binds”.

(Values after doi:10.1101/2023.12.21.572918 (bioRxiv, 2023).)
